From the nanobody polyreactivity screen of Harvey et al. (2022)

Assay: yeast display, Sf9 membrane polyspecificity reagent, FACS + sequencing; frameworks hold sequencing errors
Method in brief: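 Galactose induction of a Saccharomyces cerevisiae BJ5465 synthetic nanobody display library ran 36–48 hours. The cells were then stained for 1 hour at 4 °C with 10% biotinylated, detergent-solubilized Sf9 membrane reagent, pulled down on streptavidin microbeads and FACS-sorted into low and high (top ~1%) gates on expression and reagent-binding fluorescence. Labels for polyreactivity follow the gate of origin.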

Sequence | polyreactivity (PSR sort gate)
QVHLVESGGGLVQAGGSLRLSCAASGRIFDGYDMGWYRQAPGKERELVAAITSVGSTNYADSVKGRFTISRDNAKNTVYLQMNSLKPEDTAVYYCAAVLYVFDDEYGYLEYFSQYDYWGQGSQVTVSS | low polyreactivity
QVHLVESGGGLVQAGGSLRLSCAASGRIFFPNAMGWYRQAPGKERELVAGISIGGSTKYADSVKGRFTISRDNAKNTVYLQMNSLKPEDTAVYYCAAGRGRHTYNYWGQGTQVTVSS | low polyreactivity
QVHLVESGGGLVQAGGSLRLSCAASGRIFFTNAMGWYRQAPGKERELVATISSSDGSTYYADSVKGRFTISRDNAKYTVYLQMNSLKPEDTAVYYCAALYSFRGSRQYTYKYYYWGLGTQVTVSS | high polyreactivity
QVHLVESGGGLVQAGGSLRLSCAASGRIFGRYAMGWYRQAPGKERELVARITTSGGSTSYADSVKGRFTISRDNAKNTVYLQMNSLKPEDTAVYYCAADRARYYSEYDYWGQGTQVTVSS | low polyreactivity
QVHLVESGGGLVQAGGSLRLSCAASGRIFHYYMVWYTQAPGKERELVAVISSGDGTYYADSVKRRFTISRDNAKNTVYLQMNSLKPEDTAVYYCAADAPREYVDHYKYDDDYWGQGTQETVSS | low polyreactivity
QVHLVESGGGLVQAGGSLRLSCAASGRIFIYNAMGWYRPPPGKERELVAAINRSGVSTHYADSVKGRFTISRDNAKNTVFLQMNSLKPEDTAVYYCARTVYGARSYDYWGQGTQVTVSS | low polyreactivity
QVHLVESGGGLVQAGGSLRLSCAASGRIFRTYAMGWYRQAPGTERELVASITTSSDSPYYADSVKGRFTISRDNAKNTVYLQMNSLKPEDTAVYYCAADGDHPWWSQYDYWGQGTQVTVSS | low polyreactivity
QVHLVESGGGLVQAGGSLRLSCAASGRIFVGYAMGWSRQAPGKERELVAASTSGGITNYADSVKGRFTISRDNAKNTVYIQMTSLKPEATAVYYCNVKRRVSGYYGYKDYYWGQGTQVTVSS | high polyreactivity
QVHLVESGGGLVQAGGSLRLSCAASGRIFYTNAMGWYRQAPGKERELVAVISWGGDTTYYADSVKGRFTISRDNAKNTVSLQMNSLKPEDTEVYYCAARSKYTHSRQSDYWGQGTQVTVSS | low polyreactivity
QVHLVESGGGLVQAGGSLRLSCAASGRNFLYYAMGWYRQAPGKERELVAASTSGDSTYYADSVKGRFTISRDNAKNTVYLQRNSLKPEDTAVYYCNAYQWGGRYWLVTYDYWGQGTLVTVSS | low polyreactivity
QVHLVESGGGLVQAGGSLRLSCAASGRTFGPYTMGWYRQAPGTEREVVAAINSSGSRTYYADSVKGRFTISRDNAKNTVYLQMNSLKPEDTAVYYCADEAKWYYSWSYPYEGDYWGQGTQVTVSS | low polyreactivity
QVHLVESGGGLVQAGGSLRLSCAASGRTFGYYAMGWYRQAPAKERELVAAITSDGRTNYADSVKGRFTISRDNAKNTVYLQMNSLKPEDTAVYYCAAQILGTFYEYDYWGQGTQVTVSS | low polyreactivity
QVHLVESGGGLVQAGGSLRLSCAASGRTFIIYAMGWYRPAPGKERELVADISSGGSTYYADSVKGRFTISRDNAKNTVYLQMNIVKPEDTAVYYCAAQSWYFPIGYDYWGQGTQVTVSS | low polyreactivity
QVHLVESGGGLVQAGGSLRLSCAASGRTFILNAMGWYRQAPGKERELVAAISWSGGSTYYADSVKGRFTISRDNAKNTVYLQMNSLKPEDTAVYYCAKDSPGDGIGYGYWGQGTQVTVSS | low polyreactivity
QVHLVESGGGLVQAGGSLRLSCAASGRTFKHYAMGWYRQEPGKERELVAAITSGGSTYYADSVKGLFTISRDNAKNPVYLQMNSLKPEDTAVYYCNTESFFDTYRRYDSWGQGTQVTVSS | low polyreactivity
QVHLVESGGGLVQAGGSLRLSCAASGRTFPGYAMGWYRQAPGKERELVATITFSDGSTYYADSVKGRFTISLDNAKNTVYLQMNSLKPEDTAVYYCNARRSYFLRYGVNYWGQGTQVTVSS | low polyreactivity
QVHLVESGGGLVQAGGSLRLSCAASGRTFPYNAMGWYRQAPGKERELVAAISWRGGSTYYADSVKGRFTISRDNAKNTVYLQMNSLKPEDTAVYYCNALYPVSYDHRGDYWGQGTQVTVSS | high polyreactivity
QVHLVESGGGLVQAGGSLRLSCAASGRTFQWYAMGWYRQAPGKERELVAAIRYSAGSTYYADSVKGRFTISRDNAKNTVYLQMNSLKPEDTAVYYCAAEPYPYGPYYFLWLRYDYWGQGTHVTVSS | low polyreactivity
QVHLVESGGGLVQAGGSLRLSCAASGRTFRRYAMGWYRQAPGKERELVAGISRSGVSTYYADSVKGRFTISRDNAKNTVYLQMNSLKPEDTAVYYCATRYVPTLRSSGDYCGQGTQVTVSS | high polyreactivity
QVHLVESGGGLVQAGGSLRLSCAASGRTFRVNAMGWNRKAPGKERELLAAISSRGGTTYYADSVKGRCTISSDYAKNTLYLQMYSLKAEDTAVYYCAAASDRDFPFDYWGQGTQVSVSS | high polyreactivity
QVHLVESGGGLVQAGGSLRLSCAASGRTFRYNAMGWYRQAPGKERELVATISSSGGSTSYADSVKGRFTISRDNAKNTVYLQMNSLKPEDTAVYYCNKRRLVAPGNGMDSWGQGTQVTVSS | low polyreactivity
QVHLVESGGGLVQAGGSLRLSCAASGRTFSKYAMGWYRPAPGKERELVAAITSRGSSTYYADSVKGRFTISRDYAKNTVYLLMNSLKPEDTAVYYCNAGGYYIRTGWYRSGSDYWGQGTQVTVSS | high polyreactivity

Sequence | polyreactivity (PSR sort gate)
QVHLVESGGGLVQAGGSLRLSCAASGRTFVINAMGWYRQAPGKERELVAAITWGGGSTYYADSVKGRFTISRDNAKNTVYLQMNSLKPEDTAVYYCATSYSVQYGGSGYYWGQGTQVTVSS | low polyreactivity
QVHLVESGGGLVQAGGSLRLSCAASGRTFVYNAMGWYRQAPGKERELVAAISQSGGSTYYADSVKGRFTISRDNAKNTVYLQMNSLKPEDTAVYYCAARYKTGSYVRYNYWGQGSQVTVSS | high polyreactivity
QVHLVESGGGLVQAGGSLRLSCAASGRTFYDYTMGLDRQAPGKERELVAAISQRGGSTYYADSVKGRFTISRDNAKNTVYLQMNSLKPEDTAVYYCAARTSYSGNKYYYWGQGTQVTVSS | high polyreactivity
QVHLVESGGGLVQAGGSLRLSCAASGRTFYYYAMGWYRQAPGKERELVAAISGSGTNTYYADSVKGRFTISRDNAKNTVYLQMNRLKPEDTAVYYCAAEYFGFYTDGGVFDLYYWGQGTQVTVSS | low polyreactivity
QVHLVESGGGLVQAGGSLRLSCAASGSIFAAYTMGWYRRAPGKERELVAAISVSTVSTYYADSVKGRFTISRDNAKNTVYLQMNSLNPEDTAVYYCNADATDSYPEKDEHDSWGQGTQVTVSS | low polyreactivity
QVHLVESGGGLVQAGGSLRLSCAASGSIFALYAMGWYRQAPGKERELVARISYSGGRTYYADSVKGRFTISRDNAKNTVYLQMNSLKPEDTAVYYCATRSFKWSFVGYDYWGQGTQVTVSS | high polyreactivity
QVHLVESGGGLVQAGGSLRLSCAASGSIFAYYAMGWYRQAPGKEWEVVAAINWRVGRTYYADSVNGRFTISRDNAKNTVYLQMNSLKPEDTAVYYCAAVYRNQYRGSRFDYWGQGTQVTVSS | high polyreactivity
QVHLVESGGGLVQAGGSLRLSCAASGSIFDVNAMGWYRQAPGKERQLVAAISDSGGSTYYADSVKGRFTISRDNAKNTVYLQMNSLKPEDTAVYYCNADWSSYNYYDFDYWGQGTQVTVSS | low polyreactivity
QVHLVESGGGLVQAGGSLRLSCAASGSIFGSNAMGWYRQAPGKERELVAAISRRGGNTYYADSVKGRFTISRDNAKNTVYLQLNSLKPEDTAVYYCAAPKDPDRVQYDYWGQGTQVTVSS | low polyreactivity
QVHLVESGGGLVQAGGSLRLSCAASGSIFGYYTMGWYRQAPGKERELVAGIDFITTSTYYADSVKGRFTISRDNAKNTVSLQMNSQKPEDTAVYYCAAYGPLTGYDYWGQGTQVTVSS | low polyreactivity
QVHLVESGGGLVQAGGSLRLSCAASGSIFHRYAMGWYRQAPGKEREFVAAISRSGGSSNYADSVKGRFTISRDNAKNTVYLQMNSLKPEDTAVYYCAARTVTTGGSRYDYWAQGTQVTVSS | high polyreactivity
QVHLVESGGGLVQAGGSLRLSCAASGSIFNLYGMGWYRQAPGKERELVASITSSGTRTYYADSVKGRFTISRDNAKNTVYLQMNSLKPEDTAVYYCAAGSYLRSNRGYWGQGTQVTVSS | high polyreactivity
QVHLVESGGGLVQAGGSLRLSCAASGSIFPYAMGWYRHAPAKERELVAVISWSGASTYYADSVKGRFTISRDNAKNTVYLQMNSLKQEDTAVYYCAVYRYYKLVHLYGYDYWGQGTQVTVSS | high polyreactivity
QVHLVESGGGLVQAGGSLRLSCAASGSIFVYNAMGWYRQAPGKERELVAAIDTVGSTNYADSVKGRFTISRDNAKNTVYLQMNSLKPEDTAVYYCAVVTTYWSFYEQVIPSNYWGQGTQVTVSS | low polyreactivity
QVHLVESGGGLVQAGGSLRLSCAASGSILLWNTMGWYRQAPGKERELVADIRLSASSTYYADSVKGRFTISRDNAKNTVYLQMNSLKPEDTAVYYCAADEYTPEYCQGYDYWGQGTQVTVSS | low polyreactivity
QVHLVESGGGLVQAGGSLRLSCAASGSISLNAMGWYTQAPGKERELDAGISNDDGTNYADSVKGRFTISRDNAKNPVYLQMNSLKPEDTAVYYCNAERDFVEDYWTYLRYDYWGQGTQVTVSS | low polyreactivity
QVHLVESGGGLVQAGGSLRLSCAASGSTFAKYAMGWYRQAPRKERELDASIRLSGGSTYYADSVKGRFTISRDNAKTTVYLLMNSQKPEDTAVYYCNKQFATFYYGFDYYYWGQGTQVTVSS | low polyreactivity
QVHLVESGGGLVQAGGSLRLSCAASGSTFDAYDMGWYRQAPGKERELVAAISSSGGSTYYADSVKGRFTISRDNAKNTVYLQMNSLKPEDTAVYYCAADWSVWDYDYWGQGTQVTVSS | low polyreactivity
QVHLVESGGGLVQAGGSLRLSCAASGSTFGGNAMGWYRQPPGKERELVAAISSGDSTTYADSVKGRFTISRDNAKNTVYLQMNSLKPEDTAVYYCNADYTDTLTGYFSDEVYHGMDYWGQGTQVTVSS | low polyreactivity
QVHLVESGGGLVQAGGSLRLSCAASGSTFGRNAMGWYRQAPGKERELVAAISRGGGITYYADSVKGRFTISRDNAKNTVYLQMTSLKPEDTAVYYCNAYLSKYFRYDYWGQGTQVTVSS | high polyreactivity
QVHLVESGGGLVQAGGSLRLSCAASGSTFGYYDMGWYRQAPGKERELVATISSGGGTNYADSVKGRFTISRDNAKNTVYLQMNSLKPEDTAVYYCAVTYGSKKARYSIYPRYGYWGQGTQVTVSS | low polyreactivity
